7 variants from IntAct's records for PubMed 20561531 can be followed below.

B1: PRKC apoptosis WT1 regulator protein (Homo sapiens), Q96IZ0 (parent)
chain: MATGGYRTSSGLGGSTTDFLEEWKAKREKMRAKQNPPGPAPPGGGSSDAAGKPPAGALGTPAAAAANELNNNLPGGAPAAPAVPGPGGVNCAVGSAMLTRAAPGPRRSEDEPPAASASAAPPPQRDEEEPDGVPEKGKSSGPSARKGKGQIEKRKLREKRRSTGVVNIPAAECLDEYEDDEAGQKERKREDAITQQNTIQNEAVNLLDPGSSYLLQEPPRTVSGRYKSTTSVSEEDVSSRYSRTDRSGFPRYNRDANVSGTLVSSSTLEKKIEDLEKEVVRERQENLRLVRLMQDKEEMIGKLKEEIDLLNRDLDDIEDENEQLKQENKTLLKVVGQLTR
B2: SPRY domain-containing SOCS box protein 2 (Mus musculus), O88838 (parent)
chain: MGQTALARGSSSTPTSQALYSDFSPPEGLEELLSAPPPDLVAQRHHGWNPKDCSENIDVKEGGLCFERRPVAQSTDGVRGKRGYSRGLHAWEISWPLEQRGTHAVVGVATALAPLQADHYAALLGSNSESWGWDIGRGKLYHQSKGLEAPQYPAGPQGEQLVVPERLLVVLDMEEGTLGYSIGGTYLGPAFRGLKGRTLYPSVSAVWGQCQVRIRYMGERRVEEPQSLLHLSRLCVRHALGDTRLGQISTLPLPPAMKRYLLYK
partner: B1 chain

Variants of B1 are the subject of one experiment. The conditions noted are these: with spsb2_mouse Spsb2, O88838.
As to MATGGYRTSSGLGGSTTDFLEEWKAKREKMRAKQNPPGPAPPGGGSSDAAGKPPAGALGTPAAAAANEINNNLPGGAPAAPAVPGPGGVNCAVGSAMLTRAAPGPRRSEDEPPAASASAAPPPQRDEEEPDGVPEKGKSSGPSARKGKGQIEKRKLREKRRSTGVVNIPAAECLDEYEDDEAGQKERKREDAITQQNTIQNEAVNLLDPGSSYLLQEPPRTVSGRYKSTTSVSEEDVSSRYSRTDRSGFPRYNRDANVSGTLVSSSTLEKKIEDLEKEVVRERQENLRLVRLMQDKEEMIGKLKEEIDLLNRDLDDIEDENEQLKQENKTLLKVVGQLTR [L69I], the “effect of a mutation on the interaction” value is “increasing interaction”. For the variant MATGGYRTSSGLGGSTTDFLEEWKAKREKMRAKQNPPGPAPPGGGSSDAAGKPPAGALGTPAAAAANDINNNLPGGAPAAPAVPGPGGVNCAVGSAMLTRAAPGPRRSEDEPPAASASAAPPPQRDEEEPDGVPEKGKSSGPSARKGKGQIEKRKLREKRRSTGVVNIPAAECLDEYEDDEAGQKERKREDAITQQNTIQNEAVNLLDPGSSYLLQEPPRTVSGRYKSTTSVSEEDVSSRYSRTDRSGFPRYNRDANVSGTLVSSSTLEKKIEDLEKEVVRERQENLRLVRLMQDKEEMIGKLKEEIDLLNRDLDDIEDENEQLKQENKTLLKVVGQLTR [E68D;L69I], the “effect of a mutation on the interaction” value is “increasing interaction”.

The variants in a further experiment derive from B1. The conditions noted are these: with spsb4_mouse Spsb4, Q8R5B6.
spsb4_mouse Spsb4, Q8R5B6, sequence (Q8R5B6 whole entry): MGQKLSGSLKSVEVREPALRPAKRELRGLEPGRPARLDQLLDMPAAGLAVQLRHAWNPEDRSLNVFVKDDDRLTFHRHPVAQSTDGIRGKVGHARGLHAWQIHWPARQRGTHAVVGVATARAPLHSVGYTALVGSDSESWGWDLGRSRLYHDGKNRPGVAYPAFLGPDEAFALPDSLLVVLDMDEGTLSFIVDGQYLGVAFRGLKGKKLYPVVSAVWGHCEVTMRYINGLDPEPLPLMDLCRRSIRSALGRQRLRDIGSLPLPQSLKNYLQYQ
For the variant MATGGYRTSSGLGGSTTDFLEEWKAKREKMRAKQNPPGPAPPGGGSSDAAGKPPAGALGTPAAAAANEINNNLPGGAPAAPAVPGPGGVNCAVGSAMLTRAAPGPRRSEDEPPAASASAAPPPQRDEEEPDGVPEKGKSSGPSARKGKGQIEKRKLREKRRSTGVVNIPAAECLDEYEDDEAGQKERKREDAITQQNTIQNEAVNLLDPGSSYLLQEPPRTVSGRYKSTTSVSEEDVSSRYSRTDRSGFPRYNRDANVSGTLVSSSTLEKKIEDLEKEVVRERQENLRLVRLMQDKEEMIGKLKEEIDLLNRDLDDIEDENEQLKQENKTLLKVVGQLTR [L69I], the “effect of a mutation on the interaction” value was “increasing interaction”. On the same count and under the same terms, under MATGGYRTSSGLGGSTTDFLEEWKAKREKMRAKQNPPGPAPPGGGSSDAAGKPPAGALGTPAAAAANDINNNLPGGAPAAPAVPGPGGVNCAVGSAMLTRAAPGPRRSEDEPPAASASAAPPPQRDEEEPDGVPEKGKSSGPSARKGKGQIEKRKLREKRRSTGVVNIPAAECLDEYEDDEAGQKERKREDAITQQNTIQNEAVNLLDPGSSYLLQEPPRTVSGRYKSTTSVSEEDVSSRYSRTDRSGFPRYNRDANVSGTLVSSSTLEKKIEDLEKEVVRERQENLRLVRLMQDKEEMIGKLKEEIDLLNRDLDDIEDENEQLKQENKTLLKVVGQLTR [E68D;L69I] stands “increasing interaction”.

The variants in another experiment derive from B1. The conditions noted are these: with spsb2_mouse Spsb2, O88838. This is another data set of the same source.
Take MATGGYRTSSGLGGSTTDFLEEWKAKREKMRAKQNPPGPAPPGGGSSDAAGKPPAGALGTPAAAAANELNNALPGGAPAAPAVPGPGGVNCAVGSAMLTRAAPGPRRSEDEPPAASASAAPPPQRDEEEPDGVPEKGKSSGPSARKGKGQIEKRKLREKRRSTGVVNIPAAECLDEYEDDEAGQKERKREDAITQQNTIQNEAVNLLDPGSSYLLQEPPRTVSGRYKSTTSVSEEDVSSRYSRTDRSGFPRYNRDANVSGTLVSSSTLEKKIEDLEKEVVRERQENLRLVRLMQDKEEMIGKLKEEIDLLNRDLDDIEDENEQLKQENKTLLKVVGQLTR [N72A]: the “effect of a mutation on the interaction” value is “disrupting interaction”.

In another experiment the parent is B1. As to conditions: with spsb4_mouse Spsb4, Q8R5B6. This is another data set of the same source.
Consider MATGGYRTSSGLGGSTTDFLEEWKAKREKMRAKQNPPGPAPPGGGSSDAAGKPPAGALGTPAAAAANELNNALPGGAPAAPAVPGPGGVNCAVGSAMLTRAAPGPRRSEDEPPAASASAAPPPQRDEEEPDGVPEKGKSSGPSARKGKGQIEKRKLREKRRSTGVVNIPAAECLDEYEDDEAGQKERKREDAITQQNTIQNEAVNLLDPGSSYLLQEPPRTVSGRYKSTTSVSEEDVSSRYSRTDRSGFPRYNRDANVSGTLVSSSTLEKKIEDLEKEVVRERQENLRLVRLMQDKEEMIGKLKEEIDLLNRDLDDIEDENEQLKQENKTLLKVVGQLTR [N72A], for which the “effect of a mutation on the interaction” value is listed as “disrupting interaction”.

Another experiment covers variants of B2. The conditions noted are these: with pawr_human PAWR, Q96IZ0.
For MGQTALARGSSSTPTSQALYSDFSPPEGLEELLSAPPPDLVAQRHHGWNPKDCSENIDVKEGGLCFERRPVAQSTDGVRGKRGYSRGLHAWEISWPLEQRGTHAVVGVATALAPLQADHAAALLGSNSESWGWDIGRGKLYHQSKGLEAPQYPAGPQGEQLVVPERLLVVLDMEEGTLGYSIGGTYLGPAFRGLKGRTLYPSVSAVWGQCQVRIRYMGERRVEEPQSLLHLSRLCVRHALGDTRLGQISTLPLPPAMKRYLLYK [Y120A], the “effect of a mutation on the interaction” value is listed as “disrupting interaction”. Turning to MGQTALARGSSSTPTSQALYSDFSPPEGLEELLSAPPPDLVAQRHHGWNPKDCSENIDVKEGGLCFERRPVAQSTDGVRGKRGYSRGLHAWEISWPLEQRGTHAVVGVATALAPLQADHYAALLGAAAESWGWDIGRGKLYHQSKGLEAPQYPAGPQGEQLVVPERLLVVLDMEEGTLGYSIGGTYLGPAFRGLKGRTLYPSVSAVWGQCQVRIRYMGERRVEEPQSLLHLSRLCVRHALGDTRLGQISTLPLPPAMKRYLLYK [S126A;N127A;S128A], the “effect of a mutation on the interaction” value was “disrupting interaction”.

For the variant MGQTALARGSSSTPTSQALYSDFSPPEGLEELLSAPPPDLVAQRHHGWNPKDCSENIDVKEGGLCFERRPVAQSTDGVRGKRGYSRGLHAWEISWPLEQRGTHAVVGVATALAPLQADHYAAAAASNSESWGWDIGRGKLYHQSKGLEAPQYPAGPQGEQLVVPERLLVVLDMEEGTLGYSIGGTYLGPAFRGLKGRTLYPSVSAVWGQCQVRIRYMGERRVEEPQSLLHLSRLCVRHALGDTRLGQISTLPLPPAMKRYLLYK [L123A;L124A;G125A], the “effect of a mutation on the interaction” value was “disrupting interaction”. On to MGQTALARGSSSTPTSQALYSDFSPPEGLEELLSAPPPDLVAQRHHGWNPKDCSENIDVKEGGLCFERRPVAQSTDGVRGKRGYSRGLHAWEISWPLEQRGTHAVVGVATALAPLQADHYAALLGSNSESWGWDIGRGKLYHQSKGLEAPQYPAGPQGEQLVVPERLLVVLDMEEGTLGYSIGGTYLGPAFRGLKGRTLYPSVSAAWGQCQVRIRYMGERRVEEPQSLLHLSRLCVRHALGDTRLGQISTLPLPPAMKRYLLYK [V206A], for which the “effect of a mutation on the interaction” value is “disrupting interaction”.
